Laboratory results: the domain aggregation screens of Martell et al. (2025)

test: soluble fraction after stress (log2 fold change); higher = more stays soluble; pooled small domains, quantitative proteomics; details: stress: 50 degC
Method in brief: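 The stress applied to every library was 50°C. These custom libraries of small protein domains were pooled and measured at high throughput with quantitative proteomics as the read-out. Aggregation propensity is expressed as the base-two logarithm of the fold change in how much of each protein remains soluble. The higher the value, the more of that protein stays in solution.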

Sequence	soluble fraction (log2)
HMTSMNNTEELIDMANKIIDNNPNMVLKYKEGRNVLDFFIGQVMKETKGRANPSATSKIFKDLLEK	0.169
HMSAQQTFLRDAMRRLNMTRDSFAERIGVRRRALDTWLLPEDSSEYRTMPSIVEKFVGEILGREA	-0.453
HMFDITKEVLKQSGLYNLYKNDESLEGINRIQNIEELLNGIKDFVENNEKSQASVSSFLQDVALATDQ	0.126
HMVVVPPPATPKPGDVTGDNKINGYDLSILLSNWKRPGATLAQGDLNKDGVVNGLDLSIMLLNWG	-0.0393
HMERPKSLRELALEHLRNSIIDGSLKMGQVLSERKISEELGVSKSPVREALAQLRDEGLVSIEPQKGARV	0.213
HMGGPRDVPYSTFLIEVEKGQVAEVTIQDHKITGTYKNSNEPFITNAPDDPDLVSRLIKYGVGVQAKPPE	-0.0153
HMVVNERIKKLRRSLDLTQQEFADRIGVKRNTIANYEIGRNEPIDSVLELIVREFGVSKQWLLDGTGEMF	-0.55
HMSTLKSALDEIPGIGAARKRALLNHFGSTRVISSVGVKDLEQVEGVSKKIALLIYGYFHDK	-2.06
HMQPTVEGLMKALETMTFNERTALALHYGLTGRQPMTFMAIGRYLGISDGRAEALVNSAIRKLR	-1.43
HMIITTPYKVTASAINIRSGRGTSYSIIGTVSKGQTVDVYNNSLSKGWVKVKFSGSVGYAYAKYLEK	-0.299
HMADFIGMNATVTERIFPQGFGRISFVYEGNSISEPARSEDGKEIPTGTSVVVLEVRDKVYIVQPL	-0.221
HMRKKIIAQTLEEIRKSKGYSQKQVAAFIKVKPTTYNTYESGRTEPPAEILVRLSYLYRTPVDTLVQRDR	-2.07
HMQPSQTLSATVEFPDRLDRFLALAFPEVSRARFQRLIAEGHVSVEGVPATEIRHKLKAGQRVEAVIPPA	0.0663
HMSGHIPGIKIKGVIFFDKGSSSNHIIATTENNSNLKLRVGETVQGAVLKSIHPNHVIFFHHNQLIEVGIG	-2.21
HMGMMTLGQRIAQYRKAMGISQEELGGRLGVSRQAVSKWETDAAAPDMENLLALAREFGVSVAELTETP	-0.0446
HMQRSVKNNDTVQVHYTGKLTNGQIFDSSIDKQPLEFQLGQGQIIPGFEKGLIDMTVSEKKTITIPEAEAY	0.1
HMKRITGHLTEKNKKWYAVINLYDTDGKRKEKWQGLNLDANKGNKREAEHRLRQILDQYNTD	-0.0127
HMVPADVQHLRDIVDTMTEKQQLVYKLHVLEGYTFTEIAKLMGTSIPNVKKHYDKAILFIKNNF	-0.909
HMSRLQDAELQAQIDKMAGAMQLRDIPVYVQDIPTINGLAAPDGRVFITQGFIDKYKLGEVSAGEIASVI	0.36
HMDSQSVFADLVKSLSQKIASIPVWFEYTKNEQYDLISSYVSAKLKDLGVEFSQEEKEKFITMFMNS	-0.267
HMDSPRITMDQLRIGLYVYLDLTWFQHPFAFSHFKINSEDQIKTILGLGLKSVRYDPALSDPV	-2.67
HMTSSKISFIDPVNGGKVSVSLENSTLEKLQNRFGVNSVVRNEAGDVELKDKAQEFVAGWFADIAYTRG	0.0813
HMWNLPDPVVRPEGNVTVYENFKNTVEVLNREADLVLKFLQNEFGTSANIDDTGRARLTGSFSTDRVSSVI	-0.214
HMLGKNEAKEYKVAYGDIGKMPALIMGLVPLPKPPVVDERLRTLYVTATPEQHREIEAIMNRI	0.156
HMEDSHIYPVSFNGKMRFKLELPVSMNKKEIEEVVLQHEDAQKWLNGQNPKKVIVVPKRIINIV	0.0081

Sequence	soluble fraction (log2)
HMKVTQDIIFKRNGEEIKSKVLEITPDLIIYIDYSRADNIAREINISEVNMIIYKNGTSEIFSRPEE	0.101
HMPRVLSSYTLTLRHQPTAEAVALVRTLLSPAGSVEVKEDGRTLVVRDELAALSRIVGALRSFDH	-0.404
HMDFSSRLKDERKRLKLSQAQLGEAGGVSKDAQLNYENGSRSPSASYLELIAREGVDVQFLLTGKRS	0.0732
HMSPDTREAILAAARTAFARDGYQTSLRGIARDAGVDPALVHHYFPDRATLFAKAVIESTAG	-0.00189
HMVITQVSTTQTDTTFQYHKVKPKETLFSISRLYEVSIDEIKTINPALNSRELMAGELLKLPIK	-0.0212
HMIAALEGKQAMVLDQVSLHHGQVKLGGEVWTARPLNDQDVYEPGDRVTVMRIDGATAVVWRN	-0.281
HMQISLDTKLINLEFSVRANNVFRENQIFTLRDLTSHSKEDLMLMTNFGKTTLYEVNKKLEEHQLKLSQ	-2.69
HMSELLIVGSEQDNTRLDRFLADQYEEYTRSFLQKLIDQGNVSINGISVKKSGIKLKENDEIAVTLPEPQ	0.389
HMQGWREWDYSADLYINARVGGKIEPTENSPISRVYELDEPVSVVAFTSTRYFKLSSGDYIFAEYLSAQKV	-1.2
HMKVEFTPAYLKKFKANKNAWKFYEAQTNTYKKQSAWYVISAKQEETRLRRLDLLIYDSENGIHIKPLRR	-2.6
HMPVISGQDLRVLIRDTGRERDQGISFLDDGTMVVVEDARRLIGQEVTATVTRVHQTQTGRIVFAHLSN	0.0684
HMGPDTVDRTRRFKWVDNEVVVNFGKNAGRTLRDLAENDPGFLRWIVRSDFSDEVRTIANDALMGKFPTRK	0.00109
HMRLPQEVWEKIRAAYEAHGLSFSELAEMYGVNKSNISRRAKAEGWNQAETQRLITATVENE	0.267
HMRQYPSGVFKEEGVKAVYIHAGTPFLVIAAQYKIPLARLFEWNNLLPSTEARISQVIYLERPG	-3.67
HMLTKAEEQVMDYLWKLEKAFVKDILDEFPEPKPAYTTVSTMVRILEKKGMVGYTAYGKNHQYYPL	-1.84
HMKAGEDAVQKAVLEAVAESAAAVADYKAGSERALNFIVGKVMKKTRGKASAAEVHRLVREEVDR	0.0904
HMISADSSKVDTLVQVYSNMKPIQAAQVFEKMDEDLVIEILSRMKKKNAADILNLIKTEKAQVFAEKYA	0.0124
HMTGDIGAEAAKAAALAHAGVTESQTAKMKVDRDWDDGRLEYDVEFDVGRTEYEYTIDGVTGAVLEYEQDI	0.0136
HMQLSQLLQPFDINAFKGHPLYTEENVKMFNDYTNRVKEWTKGTPYEQYWVTKEGQPTMLAWDSFKK	-0.972
HMKTERTVRVQDQHLHYTLEEKPIKNVNLRIRPDGSVYVSAPFGTSRTLIDDFVASKSKQILAIQQAQSAM	-0.0134
HMEQTIKKYVNVATLNFRSGPSTSYSIISTLSKGTKVEVISTTNNWSKIIYDGKIGYVSSEYLSKSI	-2.1
HMQNSYSVEDLALKAGLSVDTIRYYQGLDLIAPPQKNGRRAIYGDEHLSRLDEIKKLALEGFSLRQISLLK	-0.652
HMPSEAVQNIIGNVKSKRRVATIGQARGLASNVIKEGKFDNVSNTAMVNRLIDLGIISNSIGYQ	0.115
HMESSNLESQLKKGIVPNLNGLSAKDALFLLENSGFNVKLYGMGSVKKQSLEAGKKYNKGDKITLIL	0.112
HMQQSQLDDIKSVVGGDEGYNKLREWTQANVPDETLKAFDKILDTQDPTMIKVAVEGFAAQMRQAE	-0.36

Sequence	soluble fraction (log2)
HMNKEHINLDSSKFLSLLNKTKISMSNDETRHYLNGIYIHPTVSNKSSYLTGVATDSHRLSSSSIPVD	0.121
HMLMLTPGQVSNSLNVSTATVRRWSARFARHLSPQPPNRKRSYTPDDLATLARVRDLSASGTSLAQIDIAL	-2.51
HMSGHEVMVQRITAIIAELYQYGFVSRKKMMDEFNISERTLYRDLNRLGDRIVPDGDGIYRLAPAYA	-1.55
HMKPVTNHTVKFYVDDVLWKTVTVKHGGNVRLADLPMSDGKTFVGWSESVVNVTKDLTVFALFS	-0.562
HMKTVKPSQIPYSEFLKLVETDKINDVSMVGRNIIGHLDDGSKFKTYTPPNDPTLIEKLSSHNIVINAAPE	0.149
HMRAEELEQFVERLKNEVMNNFPLKELSDNELREKIENLVEIRLANVYVSIEQRVAIAEQIYSSIR	-0.0429
HMNASTVTLENFEGAKYDDVYGKYDYQFSVTYEQTDKYESGVIISQKPEAGTKIIKGSQVSLVVAT	0.0657
HMPMHPEDLKKLVSIEMPFGKHKGRIIADLPGNYLNWFAREGFPPGEIGRLLQLMQEIDHNGLSDLLKPLR	-0.3
HMLLFNPGEVLKGFVLQSGTNNRVLLQIGDSRVIADTQTPLKAGEQLVLRVEETGPKTILQILG	0.101
HMALQDKYAELLTAANTMGVTNLAVAEKDGTLHVSGTAKSTADYDSLWALYDKIDPNMASGDLMMNI	0.0408
HMQMEISQRIKLERQTLKWTQEELADKIFVSKRTISNWETGRTVPDIESVLRLAKVFHVSLEDLLL	-4.57
HMLMKPQKTRDVLRYLKSIGWVRLRGGQGSHEIWGLPDGSIRAVIPAGHREISAGVLMQLKRAGVDVPTQW	-0.557
HMQQPVVVQQNQTVRVVTGGPGFQVANEGRALNNGLAGQVVQVRLGNGQIISGIARAGGIVEIL	0.0705
HMSLANTSVKEMLNDLVKNEEPSKPLSDEALVKIFKEKGVKIARRTVAKYRAELNILPSHLRRT	-0.749
HMNYIGADAAKNMAAADAQVDTANASFSGANLGEKNGLSYYQVDFTANGREYHYAIDAMTGTVIESSSAAS	0.124
HMKKIFIDAPLDTMITIPKDTTHHLLTVFRHKMEKPVLVGGSDGRTGVYQIQDVVDGEASAKLVGDIQ	0.514
HMKDRNISSSVLEILSKDPDHTYNYKQIAALLGVKDAFIRKRIVTLLAQLAKDGHLDEISRGKYQIK	-1.02
HMQMEYEKAIAYILDKIKSGELSIGSKLPAERVIADTLHIGRNSTREALSILHGMGMVDRVHGSGNYISEH	-0.421
HMALTLDEARTQGRVGETFYGYLVALKTDAETEKLVNDINAERKASYQQLAKQNNVSVDDIAKLAGQKLV	0.0405
HMSGWIATGTATSTGNDVRVRSTPDATVNNNILLTLNKGNRFEIDGQTQNGFYHIKVNDTIGWISGLYVKE	-0.499
HMSEEKLVFSIPDDIETMRIDKAIALETHLSRAQIAELFKENKILLNSKNSKRSEKVKPGDKISLEFIPKI	-0.00517
HMYLYADIYKKLEEKIKNMEVGEKLPSERAMVQEYGVSRNVLREALVLLSERGLIEIRPGKGSYVTNQQ	-0.436
HMKTLKHYFASIAHEFGREEAELMLLSVFKTPFEQRLMLFMKDPALTEAQVQQLDNLVRQRKQGVPLPYIL	-0.22
HMTEEDVVIFSGLSDRDLKMVQTELANSGIKYTLPTSGTVSVPNSEIARAQMVLAMAGIPRS	0.167
HMVSVEINTVERDETFRKMFTSGWKPENRIQALAVEQAKKNGLGRMSEVAGLASFRGIWKQATEQVALEA	-0.12
